Measurements as given in patent US20240002531A1 (ONO PHARMACEUTICAL, published 2024).
Like-named read-outs stand apart in the source and are kept apart here.

How the values were obtained:
HER2 peptide p611-619 [1] = biological target: T1, HER2 peptide p611-619 (human); experiment: SPR Biacore, mAb on chip, peptide analyte, 1:1 fit
T1 peptide: MPIWKFPDE

HER2 peptide p609-620 [2] = biological target: T2, HER2 peptide p609-620 (human); experiment: SPR Biacore, mAb on chip, peptide analyte, 1:1 fit
T2 peptide: SYMPIWKFPDEE

HER2 peptide p613-621 = biological target: T3, HER2 peptide p613-621 (human); experiment: SPR Biacore, mAb on chip, peptide analyte, 1:1 fit;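 note: all binding measurements run at 25 °C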
T3 peptide: IWKFPDEEG

HER2 peptide p612-622 [3] = biological target: T4, HER2 peptide p612-622 (human); experiment: SPR Biacore, mAb on chip, peptide analyte, 1:1 fit
T4 peptide: PIWKFPDEEGA

HER2 peptide p614-622 = biological target: T5, HER2 peptide p614-622 (human); experiment: SPR Biacore, mAb on chip, peptide analyte, 1:1 fit;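 note: all binding measurements run at 25 °C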
T5 peptide: WKFPDEEGA

HER2 peptide p612-618 [4] = biological target: T6, HER2 peptide p612-618 (human); experiment: SPR Biacore, mAb on chip, peptide analyte, 1:1 fit
T6 construct: also called PIWKFPD
T6 peptide: PIWKFPD

[5] = biological target: T7, HER2 peptide p603-622 (amino acids 603 to 622 of human HER2) (human); experiment: SPR Biacore, mAb on chip, peptide analyte, 1:1 fit;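 note: all binding measurements run at 25 °C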
T7 construct: Synthetic peptide; also called wild-type HER2 peptide
T7 peptide: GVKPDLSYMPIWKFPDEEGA

HER2 peptide p610-622 = biological target: T8, HER2 peptide p610-622 (human); experiment: SPR Biacore, mAb on chip, peptide analyte, 1:1 fit;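 note: all binding measurements run at 25 °C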
T8 peptide: YMPIWKFPDEEGA

HER2 peptide p614-619 = biological target: T9, HER2 peptide p614-619 (human); experiment: SPR Biacore, mAb on chip, peptide analyte, 1:1 fit;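 note: all binding measurements run at 25 °C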
T9 peptide: WKFPDE

HER2 peptide p612-621 = biological target: T10, HER2 peptide p612-621 (human); experiment: SPR Biacore, mAb on chip, peptide analyte, 1:1 fit;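 note: all binding measurements run at 25 °C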
T10 peptide: PIWKFPDEEG

HER2 peptide p613-618 = biological target: T11, HER2 peptide p613-618 (human); experiment: SPR Biacore, mAb on chip, peptide analyte, 1:1 fit
T11 peptide: IWKFPD

[6] = biological target: T12, HER2-W614A expressed on CHO-K1 cells (human, UniProt P04626 23-1255); experiment: flow cytometry on CHO-K1 cells expressing HER2-W614A
T12 construct: also called W614A point mutant; not shown: PA tag at the N terminus; RAP tag and MAP tag at the C terminus

HER2 peptide p613-622 = biological target: T13, HER2 peptide p613-622 (human); experiment: SPR Biacore, mAb on chip, peptide analyte, equilibrium analysis
T13 peptide: IWKFPDEEGA

HER2 peptide p614-621 [7] = biological target: T14, HER2 peptide p614-621 (human); experiment: as above
T14 peptide: WKFPDEEG

HER2 peptide p614-620 = biological target: T15, HER2 peptide p614-620 (human); experiment: as above
T15 peptide: WKFPDEE

HER2 peptide p614-621 [8] = biological target: T14, HER2 peptide p614-621; experiment: as above
[9] = biological target: T16, W614A peptide (HER2 603-622 with W614A) (human); experiment: SPR Biacore, mAb on chip, peptide analyte (ka N.D.)
T16 peptide: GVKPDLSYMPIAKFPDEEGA

HER2 peptide p611-619 [10] = biological target: T1, HER2 peptide p611-619; experiment: SPR Biacore, mAb on chip, peptide analyte, 1:1 fit
HER2 peptide p611-618 = biological target: T17, HER2 peptide p611-618 (human); experiment: SPR Biacore, mAb on chip, peptide analyte, 1:1 fit
T17 peptide: MPIWKFPD

HER2 peptide p609-620 [11] = biological target: T2, HER2 peptide p609-620; experiment: SPR Biacore, mAb on chip, peptide analyte, 1:1 fit
HER2 peptide p612-622 [12] = biological target: T4, HER2 peptide p612-622; experiment: SPR Biacore, mAb on chip, peptide analyte, 1:1 fit
HER2 peptide p612-618 [13] = biological target: T6, HER2 peptide p612-618; experiment: SPR Biacore, mAb on chip, peptide analyte, 1:1 fit
HER2 peptide p610-618 = biological target: T18, HER2 peptide p610-618 (human); experiment: SPR Biacore, mAb on chip, peptide analyte, 1:1 fit
T18 peptide: YMPIWKFPD

HER2 peptide p609-618 = biological target: T19, HER2 peptide p609-618 (human); experiment: SPR Biacore, mAb on chip, peptide analyte, 1:1 fit
T19 peptide: SYMPIWKFPD

HER2 peptide p612-619 = biological target: T20, HER2 peptide p612-619 (human); experiment: SPR Biacore, mAb on chip, peptide analyte, 1:1 fit
T20 peptide: PIWKFPDE

HER2 peptide p610-619 = biological target: T21, HER2 peptide p610-619 (human); experiment: SPR Biacore, mAb on chip, peptide analyte, 1:1 fit
T21 peptide: YMPIWKFPDE

B1: H2Mab-214 antibody (antibody, V domains shown)
VH: QVTLKESGPGILQPSQTLSLTCSFSGFSLSTSGMGVSWIRQPSGKGLEWLAHIFWDDDKRYNPSLKSRLTISKDTSRNKVFLKITSVDTADTATYYCARRVVATDWYFDVWGAGTTVTVSS
VL: DIVLTQSPASLAVSLGQRATISCRASESVEYYGTTLMQWYQQKPGQPPKLLIYAASKVESGVPARFSGSGSGTDFSLNIHPVEEDDVAMYFCQQSRKVPLTFGAGTKLELKR
notes: Mouse monoclonal from a hybridoma (immunogen HER2ec made in LN229 cells); also called antibody of the present invention
With B1 the Kd (HER2 peptide p611-619 [1]) was 11.1 nM, the koff (HER2 peptide p611-619 [1]) was 0.0083 s⁻¹ and the kon (HER2 peptide p611-619 [1]) was 747000 M⁻¹ s⁻¹. For the same binder, the Kd (HER2 peptide p609-620 [2]) was 6.89 nM, the koff (HER2 peptide p609-620 [2]) was 0.00445 s⁻¹ and the kon (HER2 peptide p609-620 [2]) was 645000 M⁻¹ s⁻¹. The Kd (HER2 peptide p613-621) was 13000 nM, the koff (HER2 peptide p613-621) was 0.00955 s⁻¹ and the kon (HER2 peptide p613-621) was 736 M⁻¹ s⁻¹. The Kd (HER2 peptide p612-622 [3]) was 39.7 nM, the koff (HER2 peptide p612-622 [3]) was 0.0244 s⁻¹ and the kon (HER2 peptide p612-622 [3]) was 615000 M⁻¹ s⁻¹. The Kd (HER2 peptide p614-622) was 26400 nM, the koff (HER2 peptide p614-622) was 0.0115 s⁻¹ and the kon (HER2 peptide p614-622) was 435 M⁻¹ s⁻¹. The Kd (HER2 peptide p612-618 [4]) was 27.7 nM, the koff (HER2 peptide p612-618 [4]) was 0.013 s⁻¹ and the kon (HER2 peptide p612-618 [4]) was 467000 M⁻¹ s⁻¹. It also gave a Kd [5] of 22.8 nM, a koff [5] of 0.00534 s⁻¹ and a Kd (HER2 peptide p610-622) of 38.8 nM. For the same binder, the koff (HER2 peptide p610-622) was 0.00598 s⁻¹, the kon (HER2 peptide p610-622) was 154000 M⁻¹ s⁻¹ and the Kd (HER2 peptide p614-619) was 8540 nM. For the same binder, the koff (HER2 peptide p614-619) was 0.0119 s⁻¹, the kon (HER2 peptide p614-619) was 1400 M⁻¹ s⁻¹ and the Kd (HER2 peptide p612-621) was 27.9 nM. The koff (HER2 peptide p612-621) was 0.024 s⁻¹, the kon (HER2 peptide p612-621) was 859000 M⁻¹ s⁻¹ and the Kd (HER2 peptide p613-618) was 915 nM. For the same binder, the koff (HER2 peptide p613-618) was 0.013 s⁻¹, the kon (HER2 peptide p613-618) was 14200 M⁻¹ s⁻¹ and the binding result [6] was “binds”. For the same binder, the Kd (HER2 peptide p613-622) was 127000 nM and the Kd (HER2 peptide p614-621 [7]) was 229000 nM.

B2: H2Mab-250 antibody (antibody, V domains shown)
VH: EVQLVESGGGLVQPGGSLKLSCAASGFTFSNYGMSWVRQTPDRRLELVATINNNGGGTYYPDSVKGRFTISRDNAKNTLYLQMSSLKSEDTAMYYCTSPGLLWDAWGAGTTVTVSS
VL: not shown
notes: as for B1
Binder B2 has a Kd (HER2 peptide p614-620) of 26400 nM, a Kd (HER2 peptide p614-621 [8]) of 26600 nM and a koff [9] of 0.00438 s⁻¹. The Kd (HER2 peptide p611-619 [10]) was 2.02 nM, the koff (HER2 peptide p611-619 [10]) was 0.000487 s⁻¹ and the kon (HER2 peptide p611-619 [10]) was 240000 M⁻¹ s⁻¹. For the same binder, the Kd (HER2 peptide p611-618) was 0.869 nM, the koff (HER2 peptide p611-618) was 0.00031 s⁻¹ and the kon (HER2 peptide p611-618) was 356000 M⁻¹ s⁻¹. For the same binder, the Kd (HER2 peptide p609-620 [11]) was 1.24 nM, the koff (HER2 peptide p609-620 [11]) was 0.000291 s⁻¹ and the kon (HER2 peptide p609-620 [11]) was 234000 M⁻¹ s⁻¹. It also gave a Kd (HER2 peptide p612-622 [12]) of 3.74 nM, a koff (HER2 peptide p612-622 [12]) of 0.000724 s⁻¹ and a kon (HER2 peptide p612-622 [12]) of 194000 M⁻¹ s⁻¹. The Kd (HER2 peptide p612-618 [13]) was 1.92 nM, the koff (HER2 peptide p612-618 [13]) was 0.00057 s⁻¹ and the kon (HER2 peptide p612-618 [13]) was 296000 M⁻¹ s⁻¹. It also gave a Kd (HER2 peptide p610-618) of 0.599 nM, a koff (HER2 peptide p610-618) of 0.000225 s⁻¹ and a kon (HER2 peptide p610-618) of 376000 M⁻¹ s⁻¹. The Kd (HER2 peptide p609-618) was 0.803 nM, the koff (HER2 peptide p609-618) was 0.00021 s⁻¹ and the kon (HER2 peptide p609-618) was 262000 M⁻¹ s⁻¹. The Kd (HER2 peptide p612-619) was 3.36 nM, the koff (HER2 peptide p612-619) was 0.000841 s⁻¹ and the kon (HER2 peptide p612-619) was 250000 M⁻¹ s⁻¹. The Kd (HER2 peptide p610-619) was 1.19 nM, the koff (HER2 peptide p610-619) was 0.00038 s⁻¹ and the kon (HER2 peptide p610-619) was 319000 M⁻¹ s⁻¹.
